Test results: PMC11036078, “PD‐1 inhibition with retifanlimab and/or arginase inhibition with INCB001158 in Japanese patients with solid tumors: A phase I study” (Cancer Medicine, 2024)
Values joined by “and” are separate entries in the source; they are usually repeats but may differ in a detail not shown here. Identical values can stand only once. “Also recorded” adds a separate entry of the source. Like-named read-outs stand apart in the source and are kept apart here.

Key:
advanced solid tumors [1] = assay: Clinical activity by investigator per RECIST v1.1 (ORR, DCR, DOR); type: in vivo, Japanese patients
Description: Preliminary clinical activity of single‐agent retifanlimab and INCB001158, and the combination, was an additional secondary endpoint. Diagnostic imaging was performed by computed tomography scan every 8 ± 1 weeks. Clinical activity was assessed by measuring overall response rate (ORR), defined as the percentage of patients experiencing a complete or partial response (CR or PR) as determined by the investigator according to Response Evaluation Criteria in Solid Tumors (RECIST) v1.1; disease control rate (DCR), defined as the percentage of patients maintaining either an objective response or stable disease (SD) for at least 12 weeks per RECIST v1.1; and duration of response (DOR), defined as the time from first observed response until onset of progressive disease (PD) as determined by the investigator according to RECIST v1.1 or death from any cause.
(§1) Safety and efficacy analyses were conducted in the full analysis set, which comprised all enrolled patients who received at least 1 dose of the study drug.
(§2) Safety data were summarized using descriptive statistics. PK parameters were summarized by study part, treatment regimen, cohort, dose levels, and/or visit. ORR and DCR were reported with their exact 95% confidence intervals (CIs); DOR was based on the Kaplan–Meier estimate of the distribution function, and the estimated median along with 95% CI was reported. Statistical analyses were performed using SAS® software v9.4 or later (SAS Institute Inc., Cary, NC, USA).

[2] = Western patients; ref POD1UM‐101 (NCT03059823); cited from earlier work
[3] = Retifanlimab serum pharmacokinetics (electrochemiluminescence immunoassay, noncompartmental analysis); type: in vivo, Japanese patients; settings: for Retifanlimab tmax: median (min, max)
Description: (§3) Pharmacokinetics of single‐agent retifanlimab and INCB001158, and the combination, were secondary endpoints of the study. The detection of anti‐drug antibodies (ADAs) was an exploratory endpoint. Blood samples for retifanlimab PK assessments were taken on days 1 (−2 h pre‐dose, end of infusion, and 6 h post‐dose), 2, 8, and 15 (no specified time) of cycle 1, day 1 of cycles 2–8 (−2 h pre‐dose, and end of infusion on cycles 2 and 6 only), and day 1 of every 4 cycles after cycle 8 (−2 h pre‐dose). Samples for ADA assessment were collected at the same time as for PK analysis, and an additional sample was collected at safety follow‐up on day 15 (no specified time). Blood samples for INCB001158 were collected pre‐dose, 0.5, 1, 2, 4, 6, and 8 h post‐dose on days 1 and 15 of cycle 1, 12 h post‐dose on day 1 of cycle 1, and pre‐dose on days 2 and 8 for cycle 1, and day 1 of cycle 2. Serum concentrations of retifanlimab were determined using an electrochemiluminescence immunoassay method, and plasma concentrations of INCB001158 were measured using a validated liquid chromatography with tandem mass spectrometry assay (Incyte Corporation, Wilmington, DE, USA). ADAs against retifanlimab were monitored using a bridging immunoassay (Incyte Corporation).
Pharmacokinetics parameters were derived from concentrations versus time data using model‐independent noncompartmental analysis methods (WinNonlin v8.2, Certara USA Inc., Princeton, NJ, USA), and included maximum observed serum or plasma concentration (C max), serum or plasma concentration observed at the end of the dosing interval (C tau), time to maximum observed serum or plasma concentration (t max), area under the serum or plasma concentration–time curve (AUC) from time 0 to the end of the dosing interval (AUCtau), AUC from time 0 to infinity (AUC0‐∞), apparent terminal‐phase disposition half‐life, clearance, and volume of distribution. […]

advanced solid tumors [4] = settings: cited from earlier work
[5] = Safety and tolerability (TEAEs, DLTs, irAEs; NCI CTCAE v5.0), phase Ib POD1UM-104; settings: in vivo
Description: This was a phase Ib, open‐label, multicenter study (POD1UM‐104 [NCT03910530]). The study was conducted in 2 parts. In Part 1, patients received single‐agent retifanlimab or escalating doses of single‐agent INCB001158 to confirm the RP2D of each agent. Single‐agent dosing was performed to comply with local regulations. In Part 2, patients received the combination of retifanlimab and INCB001158 at their respective RP2D determined in Part 1, to further explore safety and preliminary evidence of clinical activity. Treatment cycles in Part 1 and Part 2 were 28 days, and patients could receive treatment for up to 2 years, or until disease progression, unacceptable toxicity, death, or patient withdrawal.
In Part 1, 6 patients received retifanlimab 500 mg every 4 weeks (Q4W), given as an i.v. infusion over 60 min; this dose was based on the RP2D determined from global studies. The starting dose of INCB001158 was 75 mg taken orally twice daily (BID). Dose escalation of INCB001158 followed a standard 3 + 3 design; if 75 mg BID was deemed to be tolerable in at least 3 patients, a 100‐mg BID dose level cohort comprising at least 3 patients would be opened.
DLTs were assessed by the investigator according to the National Cancer Institute (NCI) Common Terminology Criteria for Adverse Events (CTCAE) v5.0 criteria (Table S1).
The primary endpoints of the study were safety, tolerability, DLTs, and RP2D of single‐agent retifanlimab, INCB001158, and the combination. Adverse events (AEs) were graded by NCI CTCAE v5.0, and immune‐related adverse events (irAEs) were monitored as AEs of special interest. Physical examinations, monitoring of vital signs, electrocardiograms, and laboratory assessments were conducted throughout the study.
as §1, §2

[6] = system: ADAs against retifanlimab; assay: Anti-drug antibodies against retifanlimab (bridging immunoassay); settings: samples from 12 Japanese patients
Description: as §3

[7] = RECIST v1.1, investigator, n = 6 per group
[8] = RECIST v1.1, investigator, n = 6 per group, listed as retifanlimab
[9] = first dose, in combination with INCB001158, n = 3
[10] = first dose, monotherapy 500 mg Q4W, n = 6
[11] = first dose, POD1UM-104 vs POD1UM‐101

Retifanlimab: humanized, hinge‐stabilized immunoglobulin G4κ monoclonal antibody targeting PD‐1
Median DOR (advanced solid tumors [1]; Kaplan–Meier, 95% CI, 6.8 months‐not estimable, median follow‐up 11.6 months): not estimable | Best overall response: Complete response (advanced solid tumors [1]; [7]): 1 (16.7) n (%) | Best overall response: Partial response (advanced solid tumors [1]; [7]): 1 (16.7) n (%) | Best overall response: Progressive disease (advanced solid tumors [1]; [7]): 3 (50.0) n (%) | Best overall response: Stable disease (advanced solid tumors [1]; [7]): 1 (16.7) n (%) | Best overall response: Complete response (advanced solid tumors [1]; [8]): 1 n (%) | Best overall response: Partial response (advanced solid tumors [1]; [8]): 1 n (%) | Best overall response: Stable disease (advanced solid tumors [1]; [8]): 1 n (%) | ORR (advanced solid tumors [1]; RECIST v1.1, n = 6, 95% CI, 4.3–77.7): 33.3% and 33% | DCR (advanced solid tumors [1]; RECIST v1.1, n = 6 per group, 95% CI, 11.8–88.2): 50% | DOR of the patient with CR (advanced solid tumors [1]; endometrial cancer, ongoing at data cutoff): 16.4 months | DOR of the patient with PR (advanced solid tumors [1]; lung cancer): 6.8 months | Geometric mean clearance normalized for body weight [2]: 4.05 mL/day/kg | Geometric mean volume of distribution normalized for body weight [2]: 0.0857 L/kg | Retifanlimab tmax ([3]; 500 mg Q4W i.v. monotherapy, first dose, POD1UM-104, n = 6): 1.9 (1.1, 7.1) h | Geometric mean clearance normalized for body weight ([3]; Japanese patients [POD1UM‐104]): 3.1 mL/day/kg | Geometric mean volume of distribution normalized for body weight ([3]; Japanese patients [POD1UM‐104]): 0.0955 L/kg | Mean Ctau at steady state higher in Japanese than Western patients ([3]; POD1UM-104 vs POD1UM‐101): 43% | Drug–drug interaction (retifanlimab PK, combination vs monotherapy cohorts) ([3]; combination cohort): no drug–drug interaction | Retifanlimab tmax ([3]; first dose, 500 mg Q4W in combination with INCB001158, n = 3): 0.82 (0.78, 6.0) h | Retifanlimab geometric mean AUCtau [3, 9]: 2280 mg·days/L | Retifanlimab geometric mean Cmax [3, 9]: 187 µg/mL | Retifanlimab geometric mean Ctau [3, 9]: 19.0 mg/L | Retifanlimab median tmax [3, 9]: 0.82 h | Retifanlimab geometric mean AUC0‐∞ [3, 10]: 2990 mg·days/L | Retifanlimab geometric mean AUCtau [3, 10]: 1910 mg·days/L | Retifanlimab geometric mean Cmax [3, 10]: 209 µg/mL | Retifanlimab geometric mean Ctau at the end of the 4‐week dosing period [3, 10]: 33.9 mg/L | Retifanlimab geometric mean clearance [3, 10]: 0.167 L/day | Retifanlimab geometric mean half‐life [3, 10]: 509 h | Retifanlimab half‐life, range [3, 10]: 386 to 730 h | Retifanlimab median tmax [3, 10]: 1.9 h | Retifanlimab volume of distribution [3, 10]: 5.12 L | Geometric mean AUC0‐∞ higher in Japanese than Western patients [3, 11]: 66% | Geometric mean AUCtau higher in Japanese than Western patients [3, 11]: 47% | Geometric mean Cmax higher in Japanese than Western patients [3, 11]: 31% | Retifanlimab trough concentrations from cycle 1 to cycle 7 ([3]; monotherapy, 3 patients with available data): generally increased | Patients with a response (advanced solid tumors [4]; first‐in‐human study, endometrial cancer, 3 of 29 patients): 10% | Patients with a response (advanced solid tumors [4]; first‐in‐human study, non‐small cell lung cancer, 6 of 26 patients): 23% | Patients with SD (advanced solid tumors [4]; phase II study, SCAC): 35% | Patients with a response (advanced solid tumors [4]; phase II study, SCAC): 14% | Patients with an objective response (advanced solid tumors [4]; recurrent MSI‐H or dMMR endometrial cancer, 33 of 76 patients): 43% | Grade 3 AEs reported but not occurring during the treatment window [5]: lymphocyte count decreased | Retifanlimab infusion interruption because of a TEAE [5]: 1 (16.7) n (%) | Serious TEAE after data cutoff [5]: myocarditis | Serious TEAEs (terms) [5]: grade 3 femoral neck fracture (n = 1), grade 3 ileus and pyelonephritis (n = 1) | TEAE: ALT increased [5]: 1 (16.7) n (%) | TEAE: AST increased [5]: 1 (16.7) n (%) | TEAE: Amylase increased [5]: 2 (33.3) n (%) | TEAE: Anemia [5]: 1 (16.7) n (%) | TEAE: Blood creatinine increased [5]: 1 (16.7) n (%) | TEAE: Diarrhea [5]: 1 (16.7) n (%) | TEAE: Nausea [5]: 1 (16.7) n (%) | TEAE: Tumor pain [5]: 0 n (%) | TRAEs reported (terms) [5]: infusion‐related reactions (n = 1), pruritus (n = 1), rash (n = 1), and 1 patient who reported multiple TRAEs, consisting of anemia worsening, fatigue, diarrhea, pruritus, rash, elevated lipase, increased alanine aminotransferase (ALT), and increased aspartate aminotransferase (AST) | Treatment discontinuation because of a TEAE [5]: 0 n (%) | Retifanlimab ADAs detected [6]: No retifanlimab ADAs were detected; also recorded: No ADAs toward retifanlimab were observed
